Patent US20050226813A1, “Labelled somatostatin analogs backbone cyclized through metal complexation” (priority 2002, published 2005)
*1 amine or outer side, *2 acyl side, *3 side chain or, on linkers, in order; H or OH if unused. Where no end group is shown, it is not given here. [ ]: non-standard residue; d: D form. ReO = oxorhenium(V), one metal core binding both hemi-chelators, from trichlorooxobis(triphenylphosphine)rhenium(V); GlyN3 = N-(3-aminopropyl)glycine amide, Cys acylated on the omega-amine, NC(=O)CN(CCCN[*:3])[*:1]; N(2-Aminoethyl)Gly = O=C(CN(CCN[*:3])[*:1])[*:2]

B1: ReO-GF-6 (peptide)
peptide: CXFWWKTFG
modifications: L-Cys at 1; beta-Ala at 2 (written X); D-Trp at 5; GlyN6 building unit at 9 with D-Cys on its omega-amine; C-terminal amide; ReO (oxorhenium(V)) chelated by the two Cys closes the ring
notes: also called ReO-GF-06; ReO-LCys*-βAla-Phe-Trp-DTrp-Lys-Thr-Phe-GlyN6(DCys*)-NH2
B2: ReO-GF-12 (peptide)
peptide: CGFWWKTFG
modifications: not fully specified; D-Cys at 1; D-Trp at 5; GlyN6 building unit at 9 with D-Cys on its omega-amine; C-terminal amide; ReO (oxorhenium(V)) chelated by the two Cys closes the ring
B3: ReO-GF-30 (peptide)
peptide: CFW[dW]KTF[GlyN3](dC)-NH2
modifications: bridge (positions not given here) via ReO; not fully specified (bridges); also: N2S2 oxorhenium(V) chelate via the two Cys
B4: ReO-GF-3 (peptide)
peptide: CXFWWKTFG
modifications: D-Cys at 1; GABA at 2 (written X); D-Trp at 5; GlyN6 building unit at 9 with L-Cys on its omega-amine; C-terminal amide; ReO (oxorhenium(V)) chelated by the two Cys closes the ring
notes: also called ReO-GF-03; ReO-DCys*-GABA-Phe-Trp-DTrp-Lys-Thr-Phe-GlyN6(LCys*)-NH2
B5: ReO-GF-11 (peptide)
peptide: CGFWWKTFG
modifications: not fully specified; D-Cys at 1; D-Trp at 5; GlyN6 building unit at 9 with L-Cys on its omega-amine; C-terminal amide; ReO (oxorhenium(V)) chelated by the two Cys closes the ring
notes: also called ReO-DCys*-Gly-Phe-Trp-DTrp-Lys-Thr-Phe-GlyN6(LCys*)-NH2
B6: ReO-GF-39 (peptide)
peptide: CXFWWKTFG
modifications: D-Cys at 1; beta-Ala at 2 (written X); D-Trp at 5; GlyN2 building unit at 9 with L-Cys on its omega-amine; C-terminal amide; ReO (oxorhenium(V)) chelated by the two Cys closes the ring
B7: ReO-GF-1 (peptide)
peptide: CXFWWKTFG
modifications: L-Cys at 1; GABA at 2 (written X); D-Trp at 5; GlyN6 building unit at 9 with L-Cys on its omega-amine; C-terminal amide; ReO (oxorhenium(V)) chelated by the two Cys closes the ring
B8: ReO-GF-40 (peptide)
peptide: CXFWWKTFG
modifications: not fully specified; D-Cys at 1; beta-Ala at 2 (written X); D-Trp at 5; GlyN2 building unit at 9 with D-Cys on its omega-amine; C-terminal amide; ReO (oxorhenium(V)) chelated by the two Cys closes the ring
B9: ReO-GF-24 (peptide)
peptide: CXFWWKTFG
modifications: not fully specified; D-Cys at 1; beta-Ala at 2 (written X); D-Trp at 5; GlyN3 building unit at 9 with D-Cys on its omega-amine; C-terminal amide; ReO (oxorhenium(V)) chelated by the two Cys closes the ring
B10: ReO-GF-29 (peptide)
peptide: CFWWKTFG
modifications: not fully specified; L-Cys at 1; D-Trp at 4; GlyN3 building unit at 8 with L-Cys on its omega-amine; C-terminal amide; ReO (oxorhenium(V)) chelated by the two Cys closes the ring
notes: also called ReO-LCys*-Phe-Trp-DTrp-Lys-Thr-Phe-GlyN3(LCys*)-NH2
B11: ReO-GF-43 (peptide)
peptide: CGFWWKTFG
modifications: not fully specified; D-Cys at 1; D-Trp at 5; GlyN2 building unit at 9 with L-Cys on its omega-amine; C-terminal amide; ReO (oxorhenium(V)) chelated by the two Cys closes the ring
B12: ReO-GF-31 (peptide)
peptide: CFWWKTFG
modifications: not fully specified; D-Cys at 1; D-Trp at 4; GlyN3 building unit at 8 with L-Cys on its omega-amine; C-terminal amide; ReO (oxorhenium(V)) chelated by the two Cys closes the ring
notes: also called ReO-DCys*-Phe-Trp-DTrp-Lys-Thr-Phe-GlyN3(LCys*)-NH2
B13: ReO-GF-4 (peptide)
peptide: CXFWWKTFG
modifications: not fully specified; D-Cys at 1; GABA at 2 (written X); D-Trp at 5; GlyN6 building unit at 9 with D-Cys on its omega-amine; C-terminal amide; ReO (oxorhenium(V)) chelated by the two Cys closes the ring
B14: ReO-GF-26 (peptide)
peptide: CGFW[dW]KTF[GlyN3](dC)-NH2
modifications: bridge (positions not given here) via ReO; not fully specified (bridges); also: N2S2 oxorhenium(V) chelate via the two Cys
B15: ReO-GF-45 (peptide)
peptide: CFW[dW]KTF[N(2-Aminoethyl)Gly](Cys)-NH2
modifications: bridge (positions not given here) via ReO; not fully specified (bridges); also: N2S2 oxorhenium(V) chelate via the two Cys
B16: ReO-GF-20 (peptide)
peptide: CXFWWKTFG
modifications: not fully specified; D-Cys at 1; GABA at 2 (written X); D-Trp at 5; GlyN3 building unit at 9 with D-Cys on its omega-amine; C-terminal amide; ReO (oxorhenium(V)) chelated by the two Cys closes the ring
B17: ReO-GF-2 (peptide)
peptide: CXFWWKTFG
modifications: L-Cys at 1; GABA at 2 (written X); D-Trp at 5; GlyN6 building unit at 9 with D-Cys on its omega-amine; C-terminal amide; ReO (oxorhenium(V)) chelated by the two Cys closes the ring
notes: also called ReO-GF-02; ReO-LCys*-GABA-Phe-Trp-DTrp-Lys-Thr-Phe-GlyN6(DCys*)-NH2
B18: ReO-GF-48 (peptide)
peptide: CFWWKTFG
modifications: not fully specified; D-Cys at 1; D-Trp at 4; GlyN2 building unit at 8 with D-Cys on its omega-amine; C-terminal amide; ReO (oxorhenium(V)) chelated by the two Cys closes the ring
B19: ReO-GF-37 (peptide)
peptide: CXFWWKTFG
modifications: L-Cys at 1; beta-Ala at 2 (written X); D-Trp at 5; GlyN2 building unit at 9 with L-Cys on its omega-amine; C-terminal amide; ReO (oxorhenium(V)) chelated by the two Cys closes the ring
notes: also called ReO-LCys*-βAla-Phe-Trp-DTrp-Lys-Thr-Phe-GlyN2(LCys*)-NH2
B20: ReO-GF-42 (peptide)
peptide: CGFW[dW]KTF[N(2-Aminoethyl)Gly](dC)-NH2
modifications: bridge (positions not given here) via ReO; not fully specified (bridges); also: N2S2 oxorhenium(V) chelate via the two Cys
B21: ReO-GF-35 (peptide)
peptide: CXFWWKTFG
modifications: D-Cys at 1; GABA at 2 (written X); D-Trp at 5; GlyN2 building unit at 9 with L-Cys on its omega-amine; C-terminal amide; ReO (oxorhenium(V)) chelated by the two Cys closes the ring
B22: ReO-GF-27 (peptide)
peptide: CGFWWKTFG
modifications: not fully specified; D-Cys at 1; D-Trp at 5; GlyN3 building unit at 9 with L-Cys on its omega-amine; C-terminal amide; ReO (oxorhenium(V)) chelated by the two Cys closes the ring
B23: ReO-GF-7 (peptide)
peptide: CXFWWKTFG
modifications: not fully specified; D-Cys at 1; beta-Ala at 2 (written X); D-Trp at 5; GlyN6 building unit at 9 with L-Cys on its omega-amine; C-terminal amide; ReO (oxorhenium(V)) chelated by the two Cys closes the ring

System: SST-R2 and SST-R5
Assay: not given
Conditions: activity described in WO 99/65508; cited from earlier work

| Molecule | receptor selectivity |
| --- | --- |
| *GABA-Phe-Trp-DTrp-Lys-Thr-Phe-GlyC3*-NH2 [PTR 3173] | selective for SST-R2 and SST-R5 |

Molecular target: T1, human cloned SST-R2 (human, UniProt P30874 1-369)
T1 construct: whole, on cells; Assayed as membrane preparations of CHO cells expressing the cloned receptor, not as intact cells; also called hSST-R2; human SST-R2
T1 sequence (P30874 whole entry): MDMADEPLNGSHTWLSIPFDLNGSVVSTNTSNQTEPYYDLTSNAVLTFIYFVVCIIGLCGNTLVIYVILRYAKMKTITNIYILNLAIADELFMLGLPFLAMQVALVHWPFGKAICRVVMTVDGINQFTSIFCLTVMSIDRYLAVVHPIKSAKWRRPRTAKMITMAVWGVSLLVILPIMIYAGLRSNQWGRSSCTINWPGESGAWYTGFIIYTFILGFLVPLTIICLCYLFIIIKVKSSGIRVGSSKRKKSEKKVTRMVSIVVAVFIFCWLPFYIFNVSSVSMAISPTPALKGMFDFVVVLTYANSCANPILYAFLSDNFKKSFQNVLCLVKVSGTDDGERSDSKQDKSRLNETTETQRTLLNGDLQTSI
Assay: inhibition of 125I-Tyr11-SRIF-14 binding to membranes of CHO cells expressing cloned human SST-R2
Conditions: not given
Experimental: The SST analogs were tested for their potency in inhibition of the binding of ¹²⁵I-Tyr¹¹-SRIF (based on the method described by Raynor et. al., Molecular Pharmnacology 43: 838, 1993) to membrane preparations expressing the transmembranal SST receptors (SST-R1, 2, 3, 4 or 5). The receptor preparations used for these tests were either from the cloned human receptors selectively and stably expressed in Chinese Hamster Ovary (CHO) cells or from cell lines naturally expressing the SST-R5. Typically, cell membranes were homogenized in Tris buffer in the presence of protease inhibitors and incubated for 30-40 minutes with ¹²⁵I-Tyr¹¹-SRIF with different concentrations of the tested sample. The binding reactions were filtered, the filters were washed and the bound radioactivity was counted in β counter after addition of scintillation colution. Non specific binding was defined as the radioactivity remaining bound in the presence of 1 μM unlabeled SRIF-14.

| IC50 | Molecule |
| --- | --- |
| 5.3 nM | B1 |
| 9 nM | B2 |
| 13 nM | B3 |
| 6 nM | B4 |
| 4 nM | B5 |
| 10 nM | B6 |
| 16 nM | B7 |
| > 10 nM | B8 |
| 23 nM | B9 |
| 2 nM | B10 |
| > 10 nM | B11 |
| 1.6 nM | B12 |
| 12 nM | B13 |
| ~10 nM | B14 |
| > 10 nM | B15 |
| 10 nM | B16 |
| 3.8 nM | B17 |
| > 10 nM | B18 |
| 3 nM | B19 |
| > 10 nM | B20 |
| > 10 nM | B21 |
| 20 nM | B22 |
| 12 nM | B23 |
